± gives the uncertainty stated by the source.
Test: protein stability index of a GFP-peptide fusion (yeast GPS) (PSI 1-4); higher = more stable; sorted into four equal gates, so the index is relative within each strain
Method in brief: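 The protein stability index combines read frequencies across sorting gates, each weighted by its gate number and then summed. To obtain those frequencies, a pooled yeast library of GFP fusions to tiled 17-residue yeast protein peptides, on a plasmid also expressing Cherry, was grown to mid-log phase in leucine-free medium. The cells were sorted into four equal gates by GFP/Cherry ratio before plasmid amplification by PCR and Illumina sequencing.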

Sequence | protein stability index (doa10∆) | protein stability index (pdr5∆) | protein stability index (san1∆) | protein stability index (ubr1∆)
HEAYSIIEKITDQILQL [RRP45] | 2.55 ± 0.22 | 2.31 ± 0.2 | – | –
ASYSKYLIDHIKVDGAV [RPL22B] | 2.92 ± 0.09 | 2.65 ± 0.11 | 2.62 ± 0.053 | 2.83 ± 0.063
NIKSSISNGNLATGPNL [YOR098C/NUP1] | 2.77 ± 0.09 | 3.18 ± 0.084 | 2.99 ± 0.11 | 2.89 ± 0.065
RKLFPNWIKPSDSEIPP [PRP8] | 3.42 ± 0.16 | 2.89 ± 0.11 | 2.91 ± 0.069 | 2.97 ± 0.053
IEKVDRENMICKIDFQK [RRI2] | 3.04 ± 0.11 | 3.03 ± 0.1 | 3.18 ± 0.063 | 3.15 ± 0.065
LFQTIEKLINNSDDCMM [ECM29] | 3.1 ± 0.083 | 2.92 ± 0.072 | 3.09 ± 0.063 | 3.03 ± 0.09
ADGLLQVLVCTATLAWG [BRR2] | – | 1.77 ± 0.28 | 2.17 ± 0.18 | 2.14 ± 0.25
IRDLEKLYDKTENDIKA [RPT4] | 2.66 ± 0.18 | 2.6 ± 0.21 | 1.91 ± 0.22 | 2.43 ± 0.22
MAAEKILTPESQLKKSK [RPL7A] | 3.07 ± 0.11 | 3.28 ± 0.28 | 3.25 ± 0.2 | –
TKKPLMVKNVKPSSPPD [SIR4] | 2.93 ± 0.061 | 2.66 ± 0.039 | 2.55 ± 0.058 | 2.69 ± 0.05
DNIYRNLQKIDKDSEEL [MED4] | 2.85 ± 0.078 | 3.16 ± 0.058 | 2.85 ± 0.049 | 3.01 ± 0.054
TVQENELLKSSLQKAGS [AAR2] | 3.17 ± 0.11 | 3.21 ± 0.088 | 3.01 ± 0.073 | 3.13 ± 0.084
PLRDNGLLDESPNRLRV [YML031W/NDC1] | 3.2 ± 0.14 | 3.03 ± 0.1 | 3.15 ± 0.08 | 3.39 ± 0.074
LPRCSKEEFRLMISPKD [RRI2] | 1.77 ± 0.056 | 1.88 ± 0.063 | 1.58 ± 0.16 | 1.67 ± 0.044
TSTGTTIVGVKFNNGVV [PUP1] | 2.55 ± 0.12 | 3.14 ± 0.11 | 3.01 ± 0.14 | 2.71 ± 0.095
KKENLTRDETVSLIKKY [YML103C/NUP188] | 2.82 ± 0.065 | 2.83 ± 0.1 | 2.55 ± 0.096 | 2.6 ± 0.078
IEIMGILMGFTLKDNIV [RRI1] | 2.46 ± 0.097 | 2.15 ± 0.076 | 2.81 ± 0.12 | 2.55 ± 0.083
IVKASNWRLVEVGRVVL [RPL14A] | 2.8 ± 0.1 | 1.43 ± 0.13 | – | 1.69 ± 0.089
KALVLFVPVPALSAYHK [RPS7B] | 2.13 ± 0.063 | 2.51 ± 0.072 | 2.12 ± 0.12 | 2.4 ± 0.041
GKRQLMKAVGEYMKRHP [SEC65] | 2.73 ± 0.082 | 3.31 ± 0.091 | 2.94 ± 0.071 | 2.47 ± 0.086
EPVKEYTFKTSMRVKPS [YMR129W/POM152] | 3.31 ± 0.15 | 3.08 ± 0.13 | 3.04 ± 0.13 | 3.48 ± 0.16
LKTEAANVLDPSLRKLI [BRR2] | 2.44 ± 0.052 | 2.61 ± 0.059 | 2.9 ± 0.064 | 2.68 ± 0.039
TRDETVSLIKKYKLISR [YML103C/NUP188] | 2.48 ± 0.1 | 2.56 ± 0.13 | 2.51 ± 0.11 | 2.41 ± 0.12
KFKKEKFDIIIVDTSGR [SRP54] | 2.84 ± 0.046 | 3.01 ± 0.036 | 2.95 ± 0.034 | 3.1 ± 0.04
LLERGRLRKRVTIIPLD [SMC2] | 2.25 ± 0.06 | 2.71 ± 0.059 | 2.26 ± 0.059 | 2.12 ± 0.057
PEESKGSFKYITARSAF [SWP82] | 2.85 ± 0.068 | 3.04 ± 0.076 | 3.1 ± 0.053 | 3.15 ± 0.06
FGAKMSRTLILSILNEI [SIN4] | 1.84 ± 0.063 | 1.42 ± 0.044 | 1.36 ± 0.088 | 1.68 ± 0.039

Sequence | protein stability index (doa10∆) | protein stability index (pdr5∆) | protein stability index (san1∆) | protein stability index (ubr1∆)
FEETKLSTTPTKSNRRV [SIR4] | 2.65 ± 0.1 | 2.83 ± 0.12 | 2.73 ± 0.12 | 2.78 ± 0.15
TKPEVASDMSDEDIITI [CDC53] | 2.89 ± 0.14 | 2.56 ± 0.24 | – | 2.92 ± 0.12
QELELPGEFVTAIAHSI [SNF5] | 2.36 ± 0.049 | 2.37 ± 0.038 | 2.38 ± 0.038 | 2.4 ± 0.043
RQQAYKTAQTLDENLNS [YJL041W/NSP1] | 2.84 ± 0.078 | 2.76 ± 0.079 | 3.12 ± 0.067 | 2.8 ± 0.05
VGLVMFSQFWYWFPLAH [RPN2] | 1.52 ± 0.078 | 1.39 ± 0.072 | 1.66 ± 0.17 | 1.41 ± 0.051
TSNGLKKNPNWLEEYHP [FAS1] | 3.3 ± 0.17 | 3.22 ± 0.15 | 3.48 ± 0.098 | 3.38 ± 0.11
IVTGNLVLDLLTWLSSF [IRR1] | 2.63 ± 0.061 | 2.66 ± 0.041 | 2.05 ± 0.07 | 2.29 ± 0.039
QQVVCIFSYGPHIQKML [POP6] | 1.66 ± 0.053 | 1.77 ± 0.047 | 1.74 ± 0.11 | 2.07 ± 0.054
YGEYPPTKLLVSEVAKI [PRE8] | 2.53 ± 0.084 | 2.81 ± 0.13 | 2.67 ± 0.12 | 2.93 ± 0.078
NGALDPKMGVSSSSLEC [RPO31] | 3.21 ± 0.097 | 3.41 ± 0.049 | 3.22 ± 0.067 | 3.21 ± 0.047
NFEKILLTCYELEKKYH [SRB8] | 1.98 ± 0.1 | 2.34 ± 0.1 | – | 3.71 ± 0.21
LARDTPSANNSSSIKST [RRP4] | 2.86 ± 0.076 | 2.91 ± 0.057 | 2.97 ± 0.047 | 3.14 ± 0.054
ILPTDGSAEFNVKYRAV [RPB7] | 2.57 ± 0.2 | – | 3.08 ± 0.13 | 3.48 ± 0.22
GTWSAKEAVFKSLGVKS [FAS2] | 2.94 ± 0.088 | 3.34 ± 0.089 | 3.23 ± 0.1 | 2.88 ± 0.094
DAELMADEEEEIVDTYQ [ISW2] | 1.32 ± 0.15 | 1.3 ± 0.27 | – | 1.24 ± 0.25
IPLDNYDDFIYLSDLKQ [PCI8] | 2.11 ± 0.12 | 2.04 ± 0.14 | 1.77 ± 0.25 | 2.62 ± 0.12
SRGLFEKKLMQDNKQLY [YDL116W/NUP84] | 2.75 ± 0.067 | 3.06 ± 0.09 | 3.11 ± 0.078 | 2.93 ± 0.1
HELITNIGETAGVVQDI [RPB9] | 2.82 ± 0.066 | 2.79 ± 0.054 | 3.27 ± 0.07 | 3.22 ± 0.057
SKIIVFPRNGKAPEAEQ [RPL13A] | 3.19 ± 0.12 | 3.09 ± 0.12 | 3.06 ± 0.062 | 2.98 ± 0.15
QVEYALESISHAGTAIG [PRE9] | 2.34 ± 0.077 | 2.33 ± 0.083 | 2.4 ± 0.082 | 2.52 ± 0.07
ITHNTNITDNLFQELSK [GRR1] | 3.27 ± 0.091 | 3.55 ± 0.13 | 3.62 ± 0.22 | 3.18 ± 0.16
TNGNNAGGGSNKSSVRP [MED6] | 3.19 ± 0.14 | 3.47 ± 0.097 | 2.77 ± 0.1 | 3.11 ± 0.088
IEDRDFLVRYACEPTAE [SIR3] | 2.28 ± 0.064 | 2.83 ± 0.067 | 2.53 ± 0.074 | 3.08 ± 0.069
LRNVFLGKCSRITDASL [GRR1] | 2.94 ± 0.066 | 2.81 ± 0.097 | 2.68 ± 0.07 | 2.82 ± 0.05
INDIRDDDIEKQEQEEK [YCG1] | 2.96 ± 0.082 | 2.79 ± 0.07 | 2.94 ± 0.055 | 3.12 ± 0.055
DGKLIDISGTMSGGGNH [SMC4] | 3.42 ± 0.11 | 3.4 ± 0.11 | 3.54 ± 0.075 | 3.6 ± 0.088

Reference: the supplement of paper PMC9732359
